# Results reported in PMC10518940.
# T1: HA-CXCR4-Rluc8 (human), P61073
# T1 chain: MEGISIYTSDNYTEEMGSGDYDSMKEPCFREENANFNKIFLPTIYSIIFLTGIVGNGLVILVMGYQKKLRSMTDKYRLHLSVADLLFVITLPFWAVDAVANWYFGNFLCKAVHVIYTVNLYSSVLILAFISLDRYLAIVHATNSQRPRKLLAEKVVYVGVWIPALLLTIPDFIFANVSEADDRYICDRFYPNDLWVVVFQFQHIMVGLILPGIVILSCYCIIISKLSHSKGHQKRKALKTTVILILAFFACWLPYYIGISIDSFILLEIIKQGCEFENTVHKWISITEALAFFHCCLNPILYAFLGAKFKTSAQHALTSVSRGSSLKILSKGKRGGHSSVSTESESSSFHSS
# Target: T1, HA-CXCR4-Rluc8 (human), P61073
# Experiment: FRET or BRET; BRET2 saturation in HEK293A cells: fixed amount of GPCR-Rluc8 plasmid, increasing amounts of GPCR-GFP2 plasmid (0 to 390 ng); coelenterazine 400a 5 μM; BRET50 from the net BRET ratio
# Conditions: remark: other sources report otherwise
binder,measurement,value
"CXCR4-GFP2, P61073 1-352 (receptor) MEGISIYTSDNYTEEMGSGDYDSMKEPCFREENANFNKIFLPTIYSIIFLTGIVGNGLVILVMGYQKKLRSMTDKYRLHLSVADLLFVITLPFWAVDAVANWYFGNFLCKAVHVIYTVNLYSSVLILAFISLDRYLAIVHATNSQRPRKLLAEKVVYVGVWIPALLLTIPDFIFANVSEADDRYICDRFYPNDLWVVVFQFQHIMVGLILPGIVILSCYCIIISKLSHSKGHQKRKALKTTVILILAFFACWLPYYIGISIDSFILLEIIKQGCEFENTVHKWISITEALAFFHCCLNPILYAFLGAKFKTSAQHALTSVSRGSSLKILSKGKRGGHSSVSTESESSSFHSS",BRET50,0.244
